How the values were obtained:
[1] = molecular target: T1, recombinant human HER3 polypeptide (His-tagged) (human, UniProt P21860 20-643, biotinylated in the HER2 (Example 4.1) and EGFR (Example 8.7) dimerisation ELISAs); assay: plate ELISA of the EGFR:HER3 interaction: human EGFR-His coat, HER3-biotin 4 µg/ml and NRG 0.1 µg/ml with titrated antibody, avidin HRP detection; blocked partner EGFR-His
T1 construct: Soluble recombinant human HER3 preparations of the ELISA, BLI and dimerisation assays are gathered here; also called His-tagged human HER3; human HER3 polypeptide (Sino Biological); not shown: His tag

[2] = molecular target: T2, human HER3 expressed at the cell surface (human, UniProt P21860 20-1342); assay: flow cytometry on HEK293 cells overexpressing human HER3 (HEK293 O/E H3), antibody 20 µg/ml, FITC anti-Fc secondary; same antibody on WT HEK293: 1.91
T2 construct: also called HEK293 HER3 O/E cells; HEK293 cells transfected with vector encoding human HER3

[3] = molecular target: T1, recombinant human HER3 polypeptide …; assay: ELISA, plate coated with human HER3, antibody serially diluted
[4] = molecular target: T2, human HER3 expressed at the cell surface; assay: flow cytometry on HEK293 cells overexpressing human HER3 (HEK293 O/E H3), antibody 20 µg/ml, FITC anti-Fc secondary; same antibody on WT HEK293: 0.60
human EGFR = molecular target: T3, human EGFR (human, UniProt P00533 25-645); assay: ELISA, plate coated with 0.1 µg/ml human EGFR, antibody serially diluted
T3 construct: also called human HER1 (EGFR) (Sino Biological)

[5] = molecular target: T2, human HER3 expressed at the cell surface; assay: flow cytometry on HEK293 cells overexpressing human HER3 (HEK293 O/E H3), antibody 20 µg/ml, FITC anti-Fc secondary; same antibody on WT HEK293: 0.60; remark: listed apart in the source
human HER2 = molecular target: T4, human HER2 (human, UniProt P04626 23-652); assay: ELISA, plate coated with 0.1 µg/ml human HER2, antibody serially diluted
T4 construct: also called human HER2 (Sino Biological)

B1: MM-121 (antibody, V domains shown)
VH: EVQLLESGGGLVQPGGSLRLSCAASGFTFSAYNMRWVRQAPGKGLEWVSVIYPSGGATRYADSVKGRFTISRDNSKNTLYLQMNSLRAEDTAVYYCARGYYYYGMDVWGQGTLVTVSS
VL: QSVLTQPPSASGTPGQRVTISCSGSDSNIGRNYIYWYQQFPGTAPKLLIYRNNQRPSGVPDRISGSKSGTSASLAISGLRSEDEAEYHCGTWDDSLSGPVFGGGTKLTVL
**Q.** With B1 as the binder, how does the IC50 [1] read?
**A.** 54.2 nM

B2: anti-HER3 antibody clone LJM716 (antibody, V domains shown)
VH: EVQLLESGGGLVQPGGSLRLSCAASGFTFSSYAMSWVRQAPGKGLEWVSAINSQGKSTYYADSVKGRFTISRDNSKNTLYLQMNSLRAEDTAVYYCARWGDEGFDIWGQGTLVTVSS
VL: DIQMTQSPSSLSASVGDRVTITCRASQGISNWLAWYQQKPGKAPKLLIYGASSLQSGVPSRFSGSGSGTDFTLTISSLQPEDFATYYCQQYSSFPTTFGQGTKVEIK
**Q.** With B2 as the binder, how does the “% Parent (HER3 positive)” value [2] read?
**A.** 99.5%

B3: anti-HER3 clone 10D1_c91 IgG1 (antibody, V domains shown)
VH: QVQLQESGPGLVKPSQTLSLTCTVSGYYITSGYSWHWIRQHPGKGLEWIGSIRYSGGTDYNPSLKSLATISADTSKNQFSLKLSSVTAADTAVYYCARMTTAPWYPFDYWGQGTAVTVSS
VL: DIQMTQSPSSVSASVGDRVTITCKASQIVGSNVAWYQQKPGKAPMPLIYSASYGYSGVPSRFSGSGSGTDFTLTISSLQPEDFATYYCQQYSSHPLTFGQGTKLEIKR
notes: Humanised 10D1 variant, IgG1 kappa; also called [18]
**Q.** How did the “EC50 (read off the curve)” value [3] turn out when B3 was run?
**A.** ~6 ng/mL

B4: anti-HER3 clone 10D1 IgG1 (antibody)
heavy: not shown
light: DIVMTQSQKFMSTSVGDRVSVTCKASQIVGSNVAWYQQKPGQSPKPLIYSASYRYSGVPDRFTASGSGTDFTLTITNVQSEDLAEYFCQQYSSHPLTFGAGTKLELKRTVAAPSVFIFPPSDEQLKSGTASVVCLLNNFYPREAKVQWKVDNALQSGNSQESVTEQDSKDSTYSLSSTLTLSKADYEKHKVYACEVTHQGLSSPVTKSFNRGEC
notes: Human-mouse chimeric IgG1 kappa; also called 10D1P; 10D1 (parental)
**Q.** B4 was tested. Which “% Parent (HER3 positive)” value [4] did it give?
**A.** 99%

**Q.** Does B4 bind (human EGFR)?
**A.** no binding (tested: about log -6.7 M (10 µg/ml per paragraph 597))

**Q.** What about the “% Parent (HER3 positive)” value [5] of the same binder?
**A.** 99%

**Q.** Does B4 bind (human HER2)?
**A.** no binding (tested: about log -6.7 M (10 µg/ml per paragraph 597))

— US20250019461A1 (HUMMINGBIRD BIOSCIENCE PTE, published 2025)
